Values joined by “and” are separate entries in the source; they are usually repeats but may differ in a detail not shown here. Equal entries are not always repeated.
What was measured:
[1] = target: integrin αIIb peptide (Homo sapiens) (UniProt P08514); test: SPR; details: cited from earlier work
[2] = test system: CIB2; details: peptide intrinsic fluorescence; cited from earlier work
Excerpt: In a recent study[8] we investigated the capability of CIB2 to bind Ca^2+ and Mg^2+ thereby switching to a functionally distinct structural state. By integrating several biochemical and biophysical techniques we could establish that in the absence of any cation CIB2 forms a molten globule state that essentially lacks tertiary structure. […] This is quite unusual for Ca^2+-sensor pro ... || The second approach (direct peptide immobilization) led to very low signals and unreproducible results and was not pursued any further. […] In spite of such differences, which might ... || Interaction with α7B occurs in the region proximal to the membrane and not close to the C-terminus of the cytosolic domain of the integrin. The recognition between CIB2 and the α7B target is kinetically favored in the presence of physiological Mg^2+ and in the absence of Ca^2+ and it might induce binding of another CIB2 molecule. […] However, CIB2 per se binds a single peptide as a monomer, and the complex could then induce CIB2 dimerization, ...

[3] = target: T1, human CIB2 (Homo sapiens, UniProt O75838); test: SPR interaction of α7B peptides with immobilized CIB2; format: binding; details: His-CIB2 capture (7.5 µM peptide, or 230 nM–30 μM) and amine-coupled untagged CIB2 (7.5–30 µM); 1 mM Mg^2+, 2 mM Ca^2+; experiments repeated 4 times
T1 construct: made in house
T1 sequence (O75838 1-187): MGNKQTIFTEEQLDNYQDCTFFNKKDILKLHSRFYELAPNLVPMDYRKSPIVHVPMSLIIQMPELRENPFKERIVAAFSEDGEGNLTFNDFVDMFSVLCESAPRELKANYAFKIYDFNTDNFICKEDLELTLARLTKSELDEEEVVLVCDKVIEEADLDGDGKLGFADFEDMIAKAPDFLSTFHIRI
Excerpt: SPR was also used to study quantitatively the interaction of CIB2 with one of its established targets, namely the cytoplasmic domain of integrin α7B[3],[7]. Three different peptides were used in the interaction experiments. A peptide corresponding to the membrane proximal segment of the cytoplasmic domain of α7B integrin (α7B_M), another peptide with the same amino acid content, but randomized sequence (α7B_Scrb) and a peptide covering the C-terminal region of the cytoplasmic domain of α7B integrin (α7B_C). Three different approaches were used. In a first approach, His-tagged CIB2 was initially coupled to the surface of a His-cap sensor chip (see Methods), thus ensuring homogeneous site-specific orientation, and then blocked via standard amine coupling. […] The minor differences in the spectra at the level of the phenylalanine band can be ascribed to the TEV-protease recognition site (ENLYFQ), uncleaved in the His-tagged protein. […] In a third approach, we used the same low levels of CIB2 immobilization via amine coupling described in the experiments to probe CIB2 dimerization (100–200 RU) and flowed the three peptides.
The second approach (direct peptide immobilization) led to very low signals and unreproducible results and was not pursued any further. […] In spite of such differences, which might reflect both the heterogeneity of the surface and the different chemistry of immobilization, interaction results were consistent with one another. […] It should be noted that both Huang et al.[7] and Häger et al.[3] used peptides from mouse integrin, while we used the corresponding human sequences, which in the case of α7B_C lacks the tryptophan residue present in the mouse sequence. It is not uncommon that fluorescence spectroscopy interaction studies based on the peptide intrinsic fluorescence (CIB2 has no tryptophan residue) reveal some non-specific binding, especially when a highly hydrophobic protein such as CIB2 is the ligand. […] It cannot be excluded that a similar phenomenon occurred for murine α7B_C in the work by Häger et al.[3]. Our present results, based on accurate, label-free interaction studies clearly identify the region covered by α7B_M as the preferential binding site of CIB2 with α7B integrin.
SPR titrations of α7B_M over homogeneously coupled CIB2 (approach 1) gave very reproducible results and were performed both in the presence of 1 mM Mg^2+ and in the co-presence of 1 mM Mg^2+ and 2 mM Ca^2+. Peptide concentration was varied in the 230 nM–30 μM range. As anticipated, sensorgrams could not fit to a 1:1 binding model, and the kinetic model that better fit the data was a bivalent analyte model (see Methods), in which one α7B_M peptide could bind to two CIB2 molecules. According to this scheme, binding of the peptide to the first CIB2 molecule would direct the binding to the second one, thus resulting in two sets of kinetic constants.
Details of the protein and peptide immobilization procedures and experimental settings are elucidated in the Supplementary Information.
Kinetic data were fitted according to a bivalent analyte model, were a CIB2 monomer (L) can bind an α7B_M peptide (A), and the resulting complex (AL) can bind to a second CIB2 molecule (AL2), with all processes being possibly reversible, as follows: A+L→ka1ALAL→kd1A+LAL+L→ka2AL2AL2→kd2AL+L […]

[4] = target: T1, human CIB2; test: Cross-linking (DSBU)/MALDI-TOF-MS of CIB2 with α7B peptides; format: binding; details: 10 µM CIB2, 5, 10, 20 µM peptide, 50-fold DSBU; 20 mM HEPES pH 7.5, 1 mM Mg^2+, 2 mM Ca^2+, room temperature
Experimental: CIB2 samples were cross-linked with DSBU in the presence of peptide α7B_M or α7B_Scrb as described in ref.[14] Briefly, 10 µM CIB2 was diluted in 20 mM HEPES, pH 7.5, 1 mM DTT, 1 mM Mg^2+ and 2 mM Ca^2+ and incubated with increasing peptide concentrations (5 µM, 10 µM, and 20 µM) for 10 min at room temperature. Then, 50-fold molar excess of DSBU was added and the reactions were conducted for 20 min at room temperature. As control, CIB2 was treated with DSBU without peptide. Reactions were blocked by adding ammonium bicarbonate to a final concentration of 20 mM.
Cross-linked CIB2 samples were desalted via ZipTip C4 tips (Millipore) before MALDI-TOF-MS analysis (Ultraflex III MALDI-TOF/TOF mass spectrometer, Bruker Daltonik, Bremen) was conducted using sinapinic acid as matrix. For further details see Supplementary Methods. Baseline subtraction and spectra smoothing were performed. […]
Cross-linking reactions and Mass Spectrometry
Cross-linking reactions were performed with 10 µM CIB2 (in 20 mM HEPES pH 7.5, 150 mM KCl, 1 mM DTT, 1 mM Mg2+, 2 mM Ca2+) and increasing concentrations of peptides α7B_M and α7B_Scrb, ranging from 0.5:1 to 2:1 peptide:protein ratios. After incubating the samples for 10 minutes at room temperature, DSBU (freshly prepared solution, dissolved in neat DMSO) was added to the mixture at 50-fold molar excess compared to CIB2 concentration. As the final volume of the reaction mixture was 50 µL, 1 µL of 25 mM DSBU was added to each sample. After 20 minutes, the cross-linking reactions were quenched by adding ammonium bicarbonate to a final concentration of 20 mM. Samples were incubated for 10 minutes before SDS-PAGE analysis was performed (data not shown). Samples for MALDI-TOF-MS measurements were desalted by ZipTip C4 (Millipore) and desalted protein was eluted with 70% (v/v) acetonitrile / 1% (v/v) formic acid. Each sample was mixed with a saturated solution of sinapinic acid (in 50% (v/v) methanol / 0.1% (v/v) TFA) at 1:1 ratio and spotted onto the MALDI target. […]

[5] = target: integrin α7B peptide (Homo sapiens, UniProt Q13683, Mg2+); test: SPR
[6] = target: integrin α7B peptide (Homo sapiens, UniProt Q13683, Mg2+ and Ca2+); test: SPR
[7] = test system: CIB2; test: Near-UV circular dichroism; format: physicochemical, human; details: 20-30 µM, 37 °C, EGTA, 1 mM Mg^2+, 2 mM Ca^2+; 20 mM HEPES pH 7.5
Experimental: CIB2 tertiary structure was investigated by using a Jasco J-710 spectropolarimeter equipped with a Peltier type cell holder as previously described. Briefly: near-UV (250–320 nm) CD spectra of 20 μM of sole CIB2 or CIB2/α7B_M complexes (1:1 and 1:2 ratios) were collected in the presence of 500 μM EGTA and after sequential additions of 1 mM Mg^2+ and 2 mM free Ca^2+. A 1 cm quartz cuvette was used, temperature was set at 37 °C, integration time and data pitch were set to 4 s and 1 nm, respectively. Each spectrum represents the average of 5 accumulations. […]
Figure S4: Structural comparison of His-CIB2 (A) and CIB2 (B). Near-UV CD spectra (250-320 nm) of 20-30 µM CIB2 were collected at 37°C in a quartz cuvette with 1 cm length path. Sequential additions of 500 µM EGTA (black), 1 mM Mg2+ (blue) and 2 mM Ca2+ (red) were performed. Near-UV CD spectra of the buffer (20 mM HEPES pH 7.5, 150 mM KCl, 1 mM DTT) was considered as blank and subtracted. Each spectrum represents the mean of 5 accumulations. Data were normalized according to the protein concentration and the number of residues (Molar Residue Ellipticity, MRE).
Figure S5: Near-UV CD spectra of CIB2 in the presence of different stoichiometric ratios of alpha7B_M peptide. Near-UV CD spectra (250-320nm) of 20 μM CIB2 in the absence of peptide (black lines) and in the presence of two different protein/peptide ratios (1:1 blue lines; 1:2 red lines) collected at 37°C in the presence of 500 μM EGTA (A) and after sequential additions of 1 mM Mg2+ (B) and 2 mM free Ca2+ (C). The spectrum of alpha7B_M peptide in the absence of CIB2 is shown in dashed grey lines. […]

[8] = target: T2, Calcium- and Integrin-Binding protein 2 (CIB2), human, untagged (human, UniProt O75838 1-187); test: cross-linking; 10 µM CIB2 incubated with 5, 10 or 20 µM peptide, then 50-fold molar excess of DSBU for 20 min at room temperature; 20 mM HEPES pH 7.5, 1 mM DTT, 1 mM Mg2+, 2 mM Ca2+; read by MALDI-TOF-MS of the intact protein; details: both partners purified
T2 construct: measured mass 21,767 Da by native ESI-MS; The printed mass (21.7 kDa) fits the whole protein; Residues may remain after TEV cleavage of the His tag; also called untagged CIB2; uncoupled CIB2
T2 sequence (looked up): T1 sequence (O75838 1-187)

[9] = target: T3, His-tagged CIB2, human (TEV protease recognition site and His tag kept) (human, UniProt O75838 1-187); test: SPR; His-tagged CIB2 captured by its His tag on a His-cap chip, then blocked via amine coupling; α7B_M titrated 230 nM-30 µM in the presence of 1 mM Mg2+ without Ca2+; bivalent analyte model and steady state analysis; apparent constants; details: both partners purified
T3 construct: It was used only in the SPR experiments where CIB2 was captured by its His tag; also called His-CIB2
T3 sequence (looked up): T1 sequence (O75838 1-187)

[10] = target: T3, His-tagged CIB2, human (TEV protease …); test: SPR; His-tagged CIB2 captured by its His tag on a His-cap chip, then blocked via amine coupling; peptides injected (7.5 µM; α7B_M titrated 230 nM-30 µM); 20 mM HEPES pH 7.5, 150 mM KCl, 1 mM DTT, 1 mM Mg2+, 2 mM Ca2+, 50 µM EDTA, 0.005% Tween; bivalent analyte model and steady state analysis; apparent constants; details: both partners purified

integrin αIIb peptide (Homo sapiens), sequence (P08514 1014-1039): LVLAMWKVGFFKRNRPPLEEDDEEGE

CIB1 (from UniProt Q99828)
Kd [1]: 12 µM

KEFWGLHAKPRLKLMF [α7B_Scrb]
fluorescence titration of CIB2 [2]: some non-specific signal
SPR interaction with CIB2 [3]: interact with low affinity
CIB2/peptide complex formation, 1:1 [4]: only minor signals for a 1:1 complex

LAADGHPELGPDGHPGPGTA [α7B_C, peptide covering the C-terminal region of the cytoplasmic domain of α7B integrin]
SPR interaction with CIB2 [3]: could not detect any interaction

B1: CIB2 (protein)
chain: T1 sequence (O75838 1-187)
Kd [5]: 11.6 µM
Kd [6]: 25 µM

B2: His-tagged CIB2: CIB2 with the TEV protease recognition site and the Histag kept (protein)
chain: T1 sequence (O75838 1-187)
modifications: left off: His tag, end not stated, kept | TEV protease recognition site (ENLYFQ), end not stated, kept
near-UV CD, tertiary structure vs untagged CIB2 [7]: substantially the same tertiary structure of the untagged protein

B3: α7B_M peptide, membrane proximal segment of the cytoplasmic domain of α7B integrin (peptide)
peptide: Ac-LLLWKMGFFKRAKHPE-NH2
notes: integrin α7B, human, membrane proximal segment of the cytoplasmic domain; also called α7B peptide; source: synthetic peptide, bought: Genscript
stoichiometry N [8]: 1 peptide per CIB2 and 2 peptides per CIB2
Kd [9]: 210 µM
Kd [10]: 154 µM

From article PMC6803640, “Oligomeric state, hydrodynamic properties and target recognition of human Calcium and Integrin Binding protein 2 (CIB2)” (Scientific Reports, 2019)
